Biological target: D-allulose 3-epimerase from Flavonifractor plautii (Flavonifractor plautii ATCC 29863)
Test: SEC; gel filtration on Sephacryl S-300 HR 16/60; purified enzyme eluted with 50 mM Tris-HCl pH 7.5, 150 mM NaCl, 1 mL/min; calibrated with ferritin, catalase, aldolase and conalbumin

stoichiometry N: 4
Substance: D-allulose 3-epimerase from Flavonifractor plautii (enzyme)

Source: article PMC4965175
